The values that follow come from a protein production outcome set (Wang et al. 2014).
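Further: failed if final PepcDB status was selected cloned or expressed and not failed if soluble or beyond.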

A short description of the data set: label from the status in PepcDB records.
In the case of “MKPSTEWWRYLAPLAVIAIIALLPVPAGLENHTWLYFAVFTGVIVGLILEPVPGAVVAMVGISIIAILSPWLLFSPEQLAQPGFKFTAKSLSWAVSGFSNSVIWLIFAAFMFGTGYEKTGLGRRIALILVKKMGHRTLFLGYAVMFSELILAPVTPSNSARGAGIIYPIIRNLPPLYQSQPNDSSSRSIGSYIMWMGIVADCVTSAIFLTAMAPNLLLIGLMKSASHATLSWGDWFLGMLPLSILLVLLVPWLAYVLYPPVLKSGDQVPRWAETELQAMGPLCSREKRMLGLMVGALVLWIFGGDYIDAAMVGYSVVALMLLLRIISWDDIVSNKAAWNVFFWLASLITLATGLNNTGFISWFGKLLAGSLSGYSPTMVMVALIVVFYLLRYFFASATAYTSALAPMMIAAALAMPEIPLPVFCLMVGAAIGLGSILTPYATGPSPIYYGSGYLPTADYWRLGAIFGLIFLVLLVITGLLWMPVVLL”, the protein production result was “failed”.

As for “MKPTMMTYINEEEEMCRVILADFQTNAEKLESLVKNGAKEWLILATGSSLNAAQSAKYYIENLADVRITIEEPFNHLYYEKLSSHLDLVIGISQSGQSTSTISALERVKKEASVPVVALTSDVTSEIAEFADITLDIGSGKERVGYVTKGFTATVLTLMLTGLHFAYKTVQIDETRFNNEISAFSRAIDAIPATIAETEAFYERWQEEFATAPKFTAIGYGPTVGTCKEFETKFSETVRVPSQGLDLEAFMHGPYLEVNPQHRIFFLETASAVTERLVLLRDYESKYTPFTYTVKFGKGEDDRTLVIPTDLDEYQAPFLMILPFQILAHHIAELKGNKLTERIYTDFGVAMKSKTKPGDYA”, the protein production entry is given as “not failed”.

In the case of “MKPTNKAQDDDAVFALSTEVNHKLDLHQSSAEALRLAGVYTRQSCVLDLYHGYRSDDEDTEPDEEDGRLQTVREYHENGMLKLMRTFVRRLRRDATDPTAESSYYDRVVEEKHYDPSGICRVDMHFALGQPYLYRKHYYPNNRLKSEKVFFVEDEETMRARKVGHWRTYYENGNIQSEIIYNKDGVRCGFCKRYAIDGAIEWVKDYTREQEERLQAFNAKRGNLDLTVTDAARVLGLEGDWCSHVVNRTFRSKCAPLHPDWRRTAGDKAGETWEEEQRTEAFIRLSRAREVLLKFLETHPRECSCERGGA”, the protein production result is reported as “not failed”.

As to “MKPVFLDFEQPIAELTNKIDELRFVQDESAVDISDEIHRLQKKSNDLTKSIFSKLTPAQISQVSRHPQRPYTLDYIEALFTDFEELHGDRHFADDYAIVGGLARFNGQSVMVVGHQKGRDTKEKIRRNFGMPRPEGYRKALRLMKTAEKFGLPVMTFIDTPGAYPGIGAEERGQSEAIGKNLYELTRLRVPVLCTVIGEGGSGGALAVALGDYVNMLQYSTYSVISPEGCASILWKTAEKAADAAQALGITADRLQKLDLVDTVIKEPLGGAHRDFGQTMKNVKAVLEKQLHEAQSIPLADLLSRRFDRIMAYGKFSEQ”, the protein production result is “not failed”.

For “MKPVKVGICGLGTVGGGTFNVLQRNAEEIARRAGRGIEVAQIAVRTPNPNCQIGSTPTTSDVFAVATNPEIDIVVELIGGYTLARELVLKAIENGKHVVTANKALIAVHGNEIFAKAREKGVIVAFEAAVAGGIPVIKAIREGLSANRINWVAGIINGTGNFILTEMREKGRTFPDVLAEAQALGYAEVDPTFDVEGIDAAHKLTILASIAFGIPLQFDKAYTEGITKLTTADVNYAEALGYRIKHLGVARSTAQGIELRVHPTLIPADRLIANVNGVMNAVMVNGDASGSTLFYGAGAGMEPTASSVVADLVDVVRAMTSDPENRVPHLAFQPDSLSAHPILPIEACESAYYLRIQAKDHPGVLAQVASILSERGINIESIMQKEVEEHDGLVPMILLTHRVVEQRINDAIQALEALQDVVGPVVRIRVEHLN”, the protein production entry is “not failed”.

With “MKQFGGPVLFLDRSDINTDEIIPAKYLTEITKEDLKPYILEDLKLPGFDPKGEKTKTARVVVSRANFGCGSSREHAPWVFEVNGITAVIAESFARIFRQNMFNCGMAAIELSADTIEGLFTYAGCADAAISIDVAGQTLTISGGGTSETHSFDISPFDKALVLAGGWVDYADSKY”, the protein production entry is “failed”.

For “MKQFVLFFISLFLLGVGARSQEMYQKKVFISSRGDSLNYRLLRPEVEKTGLQYPLVLFLHGAGERGSDNEKQLTHGGQMFLNPVNREKYPAFVLVPQCPEKDYWAYTSRPSSFIPSEMPVGQEITPVLRAVKELLDTYLDLPQVDRNRIYVVGLSMGGMATYDLAVRFPDTFAAAVPICGTVNPVRLADAANVRFRIFHGDADNVVPVEGSREAYKALKNLGAEVEYIEFPGCNHGSWNPAFNYPGFMEWLFAQRKR”, the protein production entry was “failed”.

For the sequence “MKQIIIAIGREFGSGGHLVAKKLAEHYNIPLYSKELLDEVAKDGRYSKEVLERFDEKPMNFAFIPVPAGGTTISLEQDIAIRQFNFIRKKANEEKESFVIVGRCAEEILSDNPNMISAFILGDKDTKTKRVMEREGVDEKTALNMMKKMDKMRKVYHNFYCESKWGDSRTYDICIKIGKVDVDTATDMIIKYIDSRDN”, the protein production entry is listed as “not failed”.

Take “MKQKDLKRAYNNVLAQAISGSKQYLFAGNLFGDIFVLRIKELDKGSEEPPGKLKIFPQGSDVDINYLAFHRDFLIVGAVGLIYGLEWNEEEESLATKRSWEVKIPMQVDAVEVPDVNSMWLDSENSILFAGCGDGVIYQVSLEDGRIQREYRGHTDYVHSVVGNANGQIFSGAEDGTVRVWSTKQQQHTSMLEPYKNPNLLRPDWGKWIGAVAVNEDWLLCGGGPKASIFHLRSMESTCVFSFPGRVHLCDFVDDCVLIGGEHNHVQSYTLNGVLQANIPVEHTACYSAVWQTSPIKFISIAGFSNKLHILKDFRFLDSKIEMYGNVEGEENDPEEEDELIEKPLTVEAA”: the protein production entry is on record as “failed”.

With “MKQKSQMETRFVKPLSCLTLSIITTIGILPPATAQETSPAKSACEQVLSNAEQKPLTKQVQKLAQFADPQQERSQMIQQANALFSQGDLPGAEENLCKFLKKYSDDAFGHFQLGNVFFRGKKVEAAISAYQEAIRLRSRYAVAYNALGIVYASQSRWSEAIVQYQKALEINPDYGDALTNVALALWQTNKKDEALASLEKALNIFKKQNRNEKANQVEQLLQRIKNSDDNLS”, the protein production entry is listed as “failed”.

Turning to “MKQLLLGRNALFGLLGAIAVLTVVPVATIMPAYAVDDIEGADAPDLTAVQAKIAAKDYKGALAELRDLAQDNQQADVYNLLGFTLRKTGDVTTALTYYNKALELKPDHKAAREYLGELYVETGDMNKAKEQLASLQKLCPAGCEELSDLQKAIDTKVTQ”, the protein production entry is given as “failed”.

For “MKQNLVAVDILLNQMRDRNIKLDSFVVSAIIETNCDRCRTEGASLAFDYSLEMGIHLKKSAYLALIGNFLRSNELPKVIEVVKEMVKAQHSLGCYQGAMLIHRLGFGRRPRLAADVFDLLPDDQKGVAAYTALMDVYISAGSPEKAMKILREMREREIMPSLGTYDVLLSGLEKTSDFQKEVALLRKEKKSLVASARFRENVHVEDKICDLLFATNLL”, the protein production result was “failed”.

Consider “MKQQKGVALITILVMVALATILAATIAKHQGNTAESTGYLMRQNQSLLYAKSAEAFFSELLIQDAENSPDVDHLAETWAQPMPPFPVEDGFVSGTLRDESGKFNLNNLVNADGTPNPAAQLWFEQLLVRVGLPAELSQAVIDWQDPDDQITGAMGAESNYYQGLSHPYLAANSKFQSVDELRLVRGFEGKKFDLIRPYISALPSVSTTKVNINTAPALLLASIDKNLDINAVQVALKEKMANLGYFKSVDELWALDAFKNIDQDSKTKISTLLDVKSSYFKAYIEVVLSERKRQFTSDLMRNNKKVYVYSRSLTPIFDIPQN”, for which the protein production result is “failed”.

As to “MKQRIPTLLAGACLAIPLHALGAADLLVVNARIFTANPQQPFAEALAVEDGRILAVGDEAGLRALADGDSQVVDLGGKRLMPGLIDTHSHAVFGGLELAGADMGNEQVGLDELERRLRAWRDNGKARHGDMLNVSGMHTAYWSQVKDFRARFDHGEWADQPLAFIGSDHHTGWANAAMLKRAGIDAARVRALPEEQRNTIGHDADATPNGFLADAGLDAVLAVLPAPSAEQMLEAGRSAVRYSNSLGLTAWMDPAANGSPGDALFSLRPDENTVGVLPVYHRLAKGGELSAHVAALLVANPRSRPTDLEVLDKVRQRFLGSPNLTLPGIKVFADGVPEYPAQTAALLEPYRNSRKTGELLIDPAHFGELVSAADARGWLVHVHAIGDRAVREALNGMQQARRDRDSGIAHSITHLQLVNPKEFERFRPLGVIASMQLYWAAADETTVDLMKPYISAFAYRYQYPAHSLLSKGATIAGASDWPVSSLSPWKAIQQAVTRKGPQGVLNAGERLDRQTMFYAYTRNAARTIGLEHRIGSLEPGKQADFIVLDRDVFEVPETQLGETKVLKTWFAGKPVYSSEG”, the protein production entry is given as “failed”.

Regarding “MKQSGTAAHKLTIFYVGMLLLFLIGLWLFATIGKELETNVVDKAMSLRGRGGLVGAFDSFSESVHHHFTDTIGVLLLQIIVILTVARLVAWFFGKIGQPTVIGEIVAGILLGPSLLGAVWPEAYEVLFPLSALANLELLSQFGLILFMFVIGMELNINDIKPRFSQSMIISHAGIFIPFLLGLLISYMTYKDYAADTTTFLPYGLFIGISMSITAFPVLARIIQERQLGKSHLGMLSISTAAAGDISAWLMLAGVMAITQSGSFLSAIYNFLFLILYLLVIFGLVRPFFKVIGRLYDNQEVVSKTMIGFIFVLLLASAYATELLSMHALFGAFMLGLVMPENVQFRKILTEKVEDVSLTLFLPLFFVSSGLQTKLGLLDSASLWLLTGAFTLIAIIGKFGGTYVAARFCGERKKASLYLGAFMNTRGLMELVVLAIGRELGILPPVIFTILVMMTLITTFMTTPLLRLIDLFFKRETELENAALQKENSGAVLLSFGRASSGAHLLHATDLLMHRGDEKPSVTALHITVGSDTNLTSSEVYEERAFAPIREESDRRRLPIRTLHHHTFEHPEAEVVRTVNAGGYSFLLVGAGINLSDRKSDRELLYFRKKLQRKLGPISIATPEALLNAHEMLRDKMHYFIEQTQCSVGIFIHRGFKHAGKVLLLMENEGDEELLAYARSLARNNGSVLDVLPETDGLPPTLSMGENRLKAGLPSTINISSYHFMLVSYRYWLRFAGECPSVIEHLPSTIIIHHRNDRSSTLKAAMI”, the protein production entry is recorded as “failed”.

Consider “MKRAVVVFSGGQDSTTCLIQALQDYDDVHCITFDYGQRHRAEIEVAQELSQKLGAAAHKVLDVGLLNELATSSLTRDSIPVPDYDANAQGIPNTFVPGRNILFLTLASIYAYQVGAEAVITGVCETDFSGYPDCRDEFVKALNQAIVLGIARDIRFETPLMWLNKAETWALADYYQQLDTVRYHTLTCYNGIKGDGCGQCAACHLRANGLAQYQKDAATVMASLKQKVGLR”, for which the protein production result is “not failed”.

Take “MKRDVLYNRIILSVFLLSLVSCVAIYYAQQTNQYNTNFLGMQLVFLAIGTLTCFGVSRLPVEFLRHHAIWLYVIMVITLLGILIPNPLVQNINGATRWYRFAGLSFQPSEVVKSIFIFVLAHFAVKYQAQKWKQLGILTVLTGIVLLLIMKQPDLGTTIVYGVTALAIILLAIKSTKLMVGIITLILTAATVGMYVVVYHISLLEKIGFHAYQFSRIQTWLDPTTDPDAVYQLNLSMKAVGSGMMTGSSGTNAYIPESHTDMIFSTIGHQFGFVGVSLLLILFMVLIHQLIMAALLMKNTFSSLVLAGFAVSFAFNIFENIGMTVGLMPLTGIPLPFISYGGSAVLGNFIAVGVVLAIIRSDADLIEEK”: the protein production result was “failed”.

With “MKRFCNGLLASALVLSLLLTGCGAAGGQQPAQASGPEQPAVRTVTDAEGNVVEVPQDISRIAVTPLPWSSVVSAIDGGSQRLASINPGALKAYSGSFFAKLDKNYATLDDTSIGSDFSINVEELLNRQVQVVIIWEYQTAEAAKLKDVGIVPVMVKNGNVQELQDSFKAVGQLLGKEERAKWVNDEYAKAYEKMKSYGEQVKKADKPRVLYLKRSDLTLQGNDNFIKESMELAGADNIAAEAKSITMEEILKLDPEIILLSDFDKFLPQDLYENRIEGQDWSSVSAVVNKRVYKTPVGIYRWDAPGVETPLMMFWLGKMLQPEIFSEVDLKAEMKAFYQDVFDYSLTDEDFGQIFNDKANAASERRIS”, the protein production result is given as “failed”.
